From the supplement of paper PMC9112550, “Optimization of the antimicrobial peptide Bac7 by deep mutational scanning” (BMC Biology, 2022)

test system: Escherichia coli TOP10; assay: shrunken log2 fold change of peptide-encoding DNA abundance (4.5 h post-induction vs induction); higher = less antimicrobial activity (less host growth inhibition); details: time post-induction: 4.5 h; library: site-saturation at positions 5, 18, 19, 20
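Also: peptides expressed intracellularly from a pBAD plasmid library in pooled LB shake-flask culture, induced with 0.3% L-arabinose, DNA abundance read by NGS, three biological replicates, DESeq2 with apeglm shrinkage.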

Row | Sequence | shrunken log2 fold change
1 | RRIRTRPPRLPRPRPRPSFCPRP | -0.296
2 | RRIRNRPPRLPRPRPRPCMPPRP | -0.549
3 | RRIRLRPPRLPRPRPRPNTAPRP | -0.248
4 | RRIRIRPPRLPRPRPRPCEKPRP | -0.626
5 | RRIRLRPPRLPRPRPRPTHAPRP | 0.029
6 | RRIRERPPRLPRPRPRPWFNPRP | -0.599
7 | RRIRMRPPRLPRPRPRPATWPRP | 0.515
8 | RRIRIRPPRLPRPRPRPFQHPRP | -0.214
9 | RRIRTRPPRLPRPRPRPASFPRP | 0.133
10 | RRIRTRPPRLPRPRPRPLPRPRP | 0.484
11 | RRIRTRPPRLPRPRPRPAQIPRP | 0.358
12 | RRIRGRPPRLPRPRPRPQFTPRP | 0.104
13 | RRIRDRPPRLPRPRPRPTMFPRP | 0.0915
14 | RRIRYRPPRLPRPRPRPCAHPRP | -0.0966
15 | RRIRVRPPRLPRPRPRPTIQPRP | -0.526
16 | RRIRSRPPRLPRPRPRPLHFPRP | -0.17
17 | RRIRQRPPRLPRPRPRPMLFPRP | -0.0627
18 | RRIRARPPRLPRPRPRPITLPRP | -0.13
19 | RRIRCRPPRLPRPRPRPPEHPRP | 0.0824
20 | RRIRDRPPRLPRPRPRPIAHPRP | 0.41
21 | RRIRPRPPRLPRPRPRPWGEPRP | 0.113
22 | RRIRHRPPRLPRPRPRPACPPRP | -0.0965
23 | RRIRHRPPRLPRPRPRPLNDPRP | 0.00159
24 | RRIRTRPPRLPRPRPRPTLCPRP | 0.148
25 | RRIRCRPPRLPRPRPRPDMGPRP | -0.406

Row | Sequence | shrunken log2 fold change
26 | RRIRNRPPRLPRPRPRPFMRPRP | 0.269
27 | RRIRCRPPRLPRPRPRPLCPPRP | -0.254
28 | RRIRVRPPRLPRPRPRPMDNPRP | 0.0397
29 | RRIRLRPPRLPRPRPRPTHEPRP | 0.361
30 | RRIRLRPPRLPRPRPRPQIRPRP | -0.0176
31 | RRIRKRPPRLPRPRPRPMRDPRP | 0.0228
32 | RRIRTRPPRLPRPRPRPWTVPRP | -0.0107
33 | RRIRMRPPRLPRPRPRPCYGPRP | -0.534
34 | RRIRMRPPRLPRPRPRPAAMPRP | 0.915
35 | RRIRIRPPRLPRPRPRPMCVPRP | -0.209
36 | RRIRFRPPRLPRPRPRPFPMPRP | -0.0754
37 | RRIRKRPPRLPRPRPRPCTMPRP | -0.271
38 | RRIRFRPPRLPRPRPRPTKEPRP | -0.0335
39 | RRIRHRPPRLPRPRPRPWHSPRP | -0.22
40 | RRIRQRPPRLPRPRPRPSYQPRP | -0.635
41 | RRIRYRPPRLPRPRPRPLGLPRP | -0.126
42 | RRIRERPPRLPRPRPRPLRRPRP | 0.303
43 | RRIRIRPPRLPRPRPRPINTPRP | -0.954
44 | RRIRTRPPRLPRPRPRPQCHPRP | -0.0436
45 | RRIRTRPPRLPRPRPRPERTPRP | -0.0336
46 | RRIRSRPPRLPRPRPRPFRSPRP | 0.00887
47 | RRIRMRPPRLPRPRPRPHHDPRP | 0.0126
48 | RRIRTRPPRLPRPRPRPNMEPRP | 0.343
49 | RRIRHRPPRLPRPRPRPYAEPRP | -0.0381
50 | RRIRMRPPRLPRPRPRPPIKPRP | 0.288

Row | Sequence | shrunken log2 fold change
51 | RRIRHRPPRLPRPRPRPCALPRP | -0.339
52 | RRIRVRPPRLPRPRPRPHYFPRP | -0.00578
53 | RRIRGRPPRLPRPRPRPTDMPRP | 1.1
54 | RRIRFRPPRLPRPRPRPGATPRP | 0.357
55 | RRIRCRPPRLPRPRPRPCFRPRP | -0.33
56 | RRIRNRPPRLPRPRPRPMYCPRP | -0.268
57 | RRIRPRPPRLPRPRPRPRQFPRP | 0.556
58 | RRIRSRPPRLPRPRPRPKNLPRP | -0.599
59 | RRIRRRPPRLPRPRPRPCKPPRP | 0.151
60 | RRIRCRPPRLPRPRPRPGGFPRP | 0.146
61 | RRIRWRPPRLPRPRPRPRAMPRP | 0.363
62 | RRIRGRPPRLPRPRPRPCGTPRP | 1.44
63 | RRIRMRPPRLPRPRPRPSGCPRP | 0.44
64 | RRIRHRPPRLPRPRPRPTLYPRP | -0.362
65 | RRIRERPPRLPRPRPRPTGCPRP | 0.155
66 | RRIRHRPPRLPRPRPRPKIYPRP | -0.296
67 | RRIRPRPPRLPRPRPRPDCMPRP | 0.053
68 | RRIRSRPPRLPRPRPRPEEEPRP | 1.47
69 | RRIRERPPRLPRPRPRPQMHPRP | -0.634
70 | RRIRCRPPRLPRPRPRPEDNPRP | 0.11
71 | RRIRTRPPRLPRPRPRPPRHPRP | 0.152
72 | RRIRQRPPRLPRPRPRPTGIPRP | -0.177
73 | RRIRIRPPRLPRPRPRPRDEPRP | 0.27
74 | RRIRTRPPRLPRPRPRPAYDPRP | -0.251
75 | RRIRERPPRLPRPRPRPDIRPRP | -0.0427
